What was measured:
Experiment in all cases: IEDB peptide-MHC binding, purified MHC/competitive/radioactivity; ≥ and ≤ were set here for values at or beyond the usual limits of such assays
[1] = target: HLA-A*02:02
[2] = target: HLA-A*68:02
[3] = target: HLA-A*02:03
[4] = target: HLA-A*02:06
[5] = target: HLA-A*02:01
[6] = source organism: Vaccinia virus WR
[7] = source organism: Hepacivirus hominis
[8] = source organism: Mammarenavirus whitewaterense
[9] = source organism: Influenza A virus

Row | Sequence | IC50 [1, 6] | IC50 [2, 6] | IC50 [3, 6] | IC50 [4, 6] | IC50 [5, 6] | other results
1 | PISDYSAEV | 716 nM | 1390 nM | 267 nM | 2800 nM | 1050 nM | –
2 | LVKDESIQL | 122 nM | 1470 nM | 649 nM | 1400 nM | 3150 nM | –
3 | IMRVMANNV | 396 nM | 1180 nM | 1260 nM | 2500 nM | 311 nM | –
4 | MQVFFGYFA | – | – | – | – | – | IC50 ([1]; source organism: SARS-CoV1): 10 nM; IC50 ([2]; source organism: SARS-CoV1): 12 nM; IC50 ([3]; source organism: SARS-CoV1): 193 nM; IC50 ([4]; source organism: SARS-CoV1): 1 nM; IC50 ([5]; source organism: SARS-CoV1): 10 nM
5 | FVATFRDMLL | 0.7 nM | 409 nM | 18 nM | 4.4 nM | 16 nM | –
6 | IVPEFAKQYV | 10 nM | 3.5 nM | 18 nM | 15 nM | 5 nM | –
7 | IVTFINDYA | 140 nM | 84 nM | 2960 nM | 1150 nM | 4320 nM | –
8 | VVHGYFTEV | – | – | – | – | – | IC50 ([1]; source organism: SARS-CoV1): 17 nM; IC50 ([2]; source organism: SARS-CoV1): 24 nM; IC50 ([3]; source organism: SARS-CoV1): 3.3 nM; IC50 ([4]; source organism: SARS-CoV1): 2.6 nM; IC50 ([5]; source organism: SARS-CoV1): 15 nM
9 | STSPTRTWKV | 397 nM | 131 nM | 717 nM | 504 nM | 741 nM | –
10 | FVFNGTSWFI | – | – | – | – | – | IC50 ([1]; source organism: SARS-CoV1): 1 nM; IC50 ([2]; source organism: SARS-CoV1): 0.33 nM; IC50 ([3]; source organism: SARS-CoV1): 2.2 nM; IC50 ([4]; source organism: SARS-CoV1): 0.44 nM; IC50 ([5]; source organism: SARS-CoV1): 1.1 nM
11 | NMCNSDVSV | 80 nM | 202 nM | 30 nM | 97 nM | 88 nM | –
12 | EVNDTHYTV | 133 nM | 0.5 nM | 115 nM | 4770 nM | 3060 nM | –
13 | KTDGAVTSPL | 62 nM | 542 nM | 400 nM | 347 nM | 1080 nM | –
14 | FTNSQIFNI | 6.9 nM | 0.23 nM | 7.1 nM | 4.8 nM | 9 nM | –
15 | AILHNIYRL | 106 nM | 2570 nM | 814 nM | 44 nM | 48 nM | –
16 | MIHKTYIDV | 1400 nM | 269 nM | 15 nM | 126 nM | 1920 nM | –
17 | LTTVFIKYV | 3640 nM | 330 nM | 676 nM | 130 nM | 1060 nM | –
18 | VLMVDSFDPV | – | – | – | – | – | IC50 [1, 7]: 13 nM; IC50 [2, 7]: 1520 nM; IC50 [3, 7]: 12 nM; IC50 [4, 7]: 31 nM; IC50 [5, 7]: 33 nM
19 | WLVIGVAFL | – | – | – | – | – | IC50 ([1]; source organism: SARS-CoV1): 2.6 nM; IC50 ([2]; source organism: SARS-CoV1): 127 nM; IC50 ([3]; source organism: SARS-CoV1): 0.94 nM; IC50 ([4]; source organism: SARS-CoV1): 180 nM; IC50 ([5]; source organism: SARS-CoV1): 35 nM
20 | NVISKIYTLI | 0.99 nM | 67 nM | 33 nM | 196 nM | 329 nM | –
21 | AVIPFDDIV | 313 nM | 903 nM | 241 nM | 42 nM | 915 nM | –
22 | LMGHFSWWTA | – | – | – | – | – | IC50 ([1]; source organism: SARS-CoV1): 19 nM; IC50 ([2]; source organism: SARS-CoV1): 82 nM; IC50 ([3]; source organism: SARS-CoV1): 135 nM; IC50 ([4]; source organism: SARS-CoV1): 97 nM; IC50 ([5]; source organism: SARS-CoV1): 18 nM
23 | FMRDEVSFSV | – | – | – | – | – | IC50 [1, 7]: 2.2 nM; IC50 [2, 7]: 2950 nM; IC50 [3, 7]: 2.7 nM; IC50 [4, 7]: 10 nM; IC50 [5, 7]: 4 nM
24 | TVQEFIFSAL | 81 nM | 7.8 nM | 90 nM | 44 nM | 321 nM | –
25 | LMDSIFVSTM | 3.7 nM | 680 nM | 8.1 nM | 610 nM | 259 nM | –
26 | FVSTMPVET | 1220 nM | 325 nM | 391 nM | 1540 nM | 841 nM | –
27 | IVNSVLLFL | – | – | – | – | – | IC50 ([1]; source organism: SARS-CoV1): 7.1 nM; IC50 ([2]; source organism: SARS-CoV1): 2090 nM; IC50 ([3]; source organism: SARS-CoV1): 179 nM; IC50 ([4]; source organism: SARS-CoV1): 30 nM; IC50 ([5]; source organism: SARS-CoV1): 68 nM

Row | Sequence | IC50 [1, 6] | IC50 [2, 6] | IC50 [3, 6] | IC50 [4, 6] | IC50 [5, 6] | other results
28 | TLNTLITLIL | 150 nM | 1140 nM | 7.1 nM | 826 nM | 45 nM | –
29 | GMSIVCIVAA | 161 nM | 1860 nM | 231 nM | 1220 nM | 178 nM | –
30 | PTSETMYLTM | 862 nM | 4210 nM | 191 nM | 915 nM | 529 nM | –
31 | SIFVSTMPV | 37 nM | 10 nM | 6.6 nM | 82 nM | 40 nM | –
32 | RIITILQDI | 583 nM | 1490 nM | 5.6 nM | 2 nM | 146 nM | –
33 | FVDTMSIYI | 21 nM | 465 nM | 370 nM | 16 nM | 9.6 nM | –
34 | ATLNTLITLI | 32 nM | 1050 nM | 28 nM | 198 nM | 543 nM | –
35 | HVLLPFYETL | 29 nM | 2270 nM | 213 nM | 115 nM | 17 nM | –
36 | LIVILFIMFM | 85 nM | 60 nM | 433 nM | 120 nM | 139 nM | –
37 | NILMDSIFV | 252 nM | 147 nM | 223 nM | 170 nM | 179 nM | –
38 | TIAHINTLI | 21 nM | 129 nM | 20 nM | 571 nM | 255 nM | –
39 | MILMTHFFSI | – | – | – | – | – | IC50 [1, 7]: 420 nM; IC50 [2, 7]: 883 nM; IC50 [3, 7]: 1120 nM; IC50 [4, 7]: 307 nM; IC50 [5, 7]: 268 nM
40 | KQYDSTDFKM | 8.4 nM | 3540 nM | 3280 nM | 107 nM | 309 nM | –
41 | AVLSEYETMV | 0.76 nM | 1770 nM | 1.5 nM | 24 nM | 9.7 nM | –
42 | NMLDDFSAGA | 308 nM | 2600 nM | 161 nM | 242 nM | 190 nM | –
43 | LIYDDNIDSI | 121 nM | 199 nM | 26 nM | 212 nM | 658 nM | –
44 | MVMCGGSLYV | – | – | – | – | – | IC50 ([1]; source organism: SARS-CoV1): 15 nM; IC50 ([2]; source organism: SARS-CoV1): 6.7 nM; IC50 ([3]; source organism: SARS-CoV1): 10 nM; IC50 ([4]; source organism: SARS-CoV1): 13 nM; IC50 ([5]; source organism: SARS-CoV1): 14 nM
45 | WLGAAITLVV | 20 nM | 264 nM | 78 nM | 1840 nM | 123 nM | –
46 | SLMAFTASI | – | – | – | – | – | IC50 [1, 7]: 19 nM; IC50 [2, 7]: 284 nM; IC50 [3, 7]: 40 nM; IC50 [4, 7]: 743 nM; IC50 [5, 7]: 106 nM
47 | SLEATFIDV | 35 nM | 23 nM | 80 nM | 10 nM | 182 nM | –
48 | ILQMREIIT | 4100 nM | 1160 nM | 1340 nM | 1230 nM | 380 nM | –
49 | KIYTLIYRQL | 707 nM | 4670 nM | 1030 nM | 912 nM | 4020 nM | –
50 | HIKTIAVSV | 3080 nM | 381 nM | 9.6 nM | 1550 nM | 1050 nM | –
51 | FMYTKHSML | 2.4 nM | 3540 nM | 0.39 nM | 222 nM | 20 nM | –
52 | LNASYITPYV | – | – | – | – | – | IC50 [1, 8]: 33 nM; IC50 [2, 8]: 13 nM; IC50 [3, 8]: 1070 nM; IC50 [4, 8]: 38 nM; IC50 [5, 8]: 87 nM
53 | SCINRCFYV | – | – | – | – | – | IC50 [1, 9]: 808 nM; IC50 [2, 9]: 1080 nM; IC50 [3, 9]: 947 nM; IC50 [4, 9]: 226 nM; IC50 [5, 9]: 295 nM
